Reference: patent publication US7432070B2, “Homogenous assay for enzymatic activity” (Pierce Biotechnology, Inc., priority 2003, dated 2008)
Non-standard residues stand in square brackets, D forms with d. No end group written: not given here. pS = N[C@@H](COP(=O)(O)O)C(=O)O; Nva = CCC[C@H](N)C(=O)O

Tests used:
[1] = molecular target: T1, Calpain 1 (Homo sapiens, UniProt P07384); assay: Km determination for Calpain 1 using the protease assay; type: biochemical; details: substrate at 0.078, 0.15, 0.31 and 0.62 μM, 13.15 U/ml Calpain 1, 5 minutes, room temperature, N=3; read-out: Km of labeled peptide substrate for Calpain 1
T1 construct: Calpain 1 from human erythrocytes; purchased Calbiochem; host or cells: human erythrocytes
T1 sequence (P07384 1-714): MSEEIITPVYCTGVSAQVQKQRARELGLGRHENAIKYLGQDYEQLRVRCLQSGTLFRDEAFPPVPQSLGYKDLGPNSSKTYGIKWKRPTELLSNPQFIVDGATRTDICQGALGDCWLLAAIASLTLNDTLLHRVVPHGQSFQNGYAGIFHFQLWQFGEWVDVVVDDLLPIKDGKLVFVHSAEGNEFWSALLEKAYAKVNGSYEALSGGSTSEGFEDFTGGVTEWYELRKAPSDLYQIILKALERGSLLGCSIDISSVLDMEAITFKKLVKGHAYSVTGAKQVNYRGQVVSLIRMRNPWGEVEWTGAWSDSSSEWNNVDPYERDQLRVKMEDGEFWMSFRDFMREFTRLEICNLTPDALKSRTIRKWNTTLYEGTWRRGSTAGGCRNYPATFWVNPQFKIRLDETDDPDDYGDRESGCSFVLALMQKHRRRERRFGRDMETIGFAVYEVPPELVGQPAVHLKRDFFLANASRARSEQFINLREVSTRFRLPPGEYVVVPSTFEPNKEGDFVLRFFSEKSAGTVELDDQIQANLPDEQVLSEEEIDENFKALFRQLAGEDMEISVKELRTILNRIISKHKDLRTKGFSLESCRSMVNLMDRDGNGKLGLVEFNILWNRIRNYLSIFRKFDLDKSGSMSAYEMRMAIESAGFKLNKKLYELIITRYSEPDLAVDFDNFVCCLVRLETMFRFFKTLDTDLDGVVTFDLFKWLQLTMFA
T1 sequence (P04632 1-268 partner): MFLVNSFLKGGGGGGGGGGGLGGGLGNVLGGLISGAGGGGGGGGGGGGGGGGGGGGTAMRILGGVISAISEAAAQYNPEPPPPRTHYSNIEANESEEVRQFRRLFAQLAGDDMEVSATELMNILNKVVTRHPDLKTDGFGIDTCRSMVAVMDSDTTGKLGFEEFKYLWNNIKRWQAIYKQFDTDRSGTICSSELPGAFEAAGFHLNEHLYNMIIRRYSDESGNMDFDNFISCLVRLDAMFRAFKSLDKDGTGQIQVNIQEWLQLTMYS
Description: (§1) Pepsin A was purchased from Sigma. TPCK Trypsin was obtained from Pierce Biotechnology.
Calpain 1 Lissamine rhodamine-labeled peptide substrate (Dye-[…] PRDpSA) (SEQ. ID NO 3) at 0.078, 0.15, 0.31 and 0.62 μM were digested with 13.15 U/ml Calpain 1. The Lissamine rhodamine-labeled peptide was prepared in 25 mM Tris, 150 mM NaCl pH 7.5, 10 mM CaCl2, and Calpain 1 was prepared in 25 mM Tris, 150 mM NaCl pH 7.5. […] N=3.

[2] = molecular target: T2, MMP-3 (Homo sapiens, UniProt P08254); assay: Km determination for MMP-3 using the protease assay; type: biochemical; details: substrate at 1, 2, 5 and 10 μM, 0.88 mU/ml MMP-3, 5 minutes, room temperature, N=3; read-out: Km of labeled peptide substrate for MMP-3
T2 construct: Recombinant MMP-3 catalytic subunit; purchased Calbiochem
T2 sequence (P08254 100-272 limits assumed, species assumed): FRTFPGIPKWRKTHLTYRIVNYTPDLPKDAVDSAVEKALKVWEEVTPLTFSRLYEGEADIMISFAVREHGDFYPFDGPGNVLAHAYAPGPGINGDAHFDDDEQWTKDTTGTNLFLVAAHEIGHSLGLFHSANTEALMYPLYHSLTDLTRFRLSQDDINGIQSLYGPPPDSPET
Excerpt: as §1

Km [1] [µM]	Km [2] [µM]	Substance
0.17 ± 0.01		Dye-QQQEVYGMM PRDpSA: Calpain 1 Lissamine rhodamine-labeled peptide substrate, label at the N-terminus ({Lissamine rhodamine}-QQQEVYGMMPRD[pS]A)
	1.44 ± 0.15	Dye-RPKPVE-Norvaline-WRKpSA: MMP-3 Lissamine rhodamine-labeled peptide substrate, label at the N-terminus ({Lissamine rhodamine}-RPKPVE[Nva]WRK[pS]A)
